Laboratory results taken from patent US20150087596A1.

How the values were obtained:
[1] = molecular target: human Nav1.7 (sodium channel protein type 9 subunit alpha) (human) (UniProt Q15858); assay: cell-based or functional assay
[2] = molecular target: human Nav1.2 (sodium channel protein type 2 subunit alpha) (human) (UniProt Q99250); assay: cell-based or functional assay

Substance: recombinant Huwentoxin-IV (peptide)
- IC50, veratridine-induced depolarization inhibition assay [1]: 159 nM
- ratio of IC50 for Nav1.2 to IC50 for Nav1.7 [1]: 2.14
- IC50, veratridine-induced depolarization inhibition assay [2]: 342 nM
